Results from patent US10767162B2, “Methods for differentiation” (PRESIDENT AND FELLOWS OF HARVARD COLLEGE, priority 2014, dated 2020).

Tests used:
[1] = system: ES cell line that constitutively over-expressed the transcription factor MyoD; experiment: Skeletal muscle differentiation efficiency of MyoD ES cells, myosin heavy chain (MHC) immunostaining; assay type: cell-based, mouse
Excerpt: FIG. 2A depicts a differentiation time course of ES cells to skeletal muscle when exposed to low serum vs high serum conditions. […] LIF was removed at Day 0. Low serum was then initiated at different starting times beginning with Day 0. Cells were then fixed and immunostained for myosin heavy chain (MHC) expression. Differentiating cells in high serum were continuously split to prevent overgrowth. FIG. 2B depicts a comparison of differentiation efficiency generated by two types of defined media (N2B27) and 20% KOSR, low serum media (2% horse serum+insulin), and high serum media (15% FBS). Cells were removed from standard ES media (LIF and serum) and incubated in the specified media starting from Day 0 to Day 4. Continuation of LIF (1000 U/ml) or addition of Bmp4 (10 ng/ml) results in a strong block to muscle differentiation.
To probe the effect of the cell cycle on differentiation an ES cell line was used that constitutively over-expressed the transcription factor MyoD driven off an EF1alpha promoter (5) activated by tamoxifen-induced Cre recombination. […]
However any implication of growth factor effects through the manipulation of serum can be fraught with the inconsistencies and complexities of serum. […] Use of both media in ES cells led to activation of MyoD and terminal myogenesis similar to the 2% low serum media, with some improvement (FIG. 2B; assessed on Day 4). […]

[2] = system: Hnf4α-overexpressing ES cells; experiment: Hepatoblast-like differentiation of Hnf4α-overexpressing ES cells, alphafetoprotein (AFP) expression; assay type: cell-based; conditions: added to growth factor-free media; day 4
Excerpt: FIGS. 13A-13B depict hepatoblast-like cells. […] Alpha-fetoprotein mRNA expression after 4 days in media of different growth factor content. FIG. 13B depicts a time course of gene expression for hepatic lineage factors and hepatocyte markers in growth factor-free (N2B27) media.
One essential lineage specifying factor for hepatocytes is hepatic nuclear factor 4α (Hnf4α)(6). Switching of Hnf4α-overexpressing ES cells to growth factor-free or growth factor-reduced media led to the activation of a subset of hepatic genes. At day 0, LIF and doxycycline were removed and the media was either switched or kept to 15% FBS. By day 4, there were high levels of alphafetoprotein (AFP) that could be detected in the cells differentiated in the growth factor-free or growth factor-reduced media and less than 10% the level of AFP in cells in 15% FBS (FIG. 13A and FIG. 16). AFP expression could be confirmed by immunostaining. While this activation by growth factor withdrawal was similar to the pattern seen in previous cell types, there was an additional interesting point of variation compared to other lineages examined so far. […] Albumin production was also detected, as was Sox17, Pparα, Cdh3, Tbx3, Krt18, Hhex, Lrh1, C/EBPα, Hnf1a, and Hnf1b. […]
(§1) RNA isolation and qPCR. […] Quantitative PCR was performed using Bio-rad's SYBR™ green Supermix. […]

[3] = system: iNIL ES cells (Ngn2, Isl1, Lhx3); experiment: Spinal motor neuron differentiation of iNIL ES cells, beta-3 tubulin (Tubb3) expression; assay type: cell-based, mouse; conditions: added back into growth factor-free media
Excerpt: FIGS. 11A-11B depict spinal motor neurons. […] FIG. 11B depicts a time course of gene expression for neuronal lineage factors and motor neuron terminal differentiation markers in growth factor-free (N2B27) media.
To generate spinal motor neurons, a mouse ES cell line that overexpressed a combination of three transcription factor lineage specifiers (Ngn2, Isl1, Lhx3) was used. This combination was previously shown to specify spinal motor neuron identity (4). These iNIL cells, as they are also called, upon doxycycline stimulation express the three transcription factors from a single open reading frame coupled by 2A peptides. Growth factor withdrawal was used as the method of cell cycle manipulation in the experiments described in this Example.
As expected from the results on skeletal muscle myotubes, neurons rapidly formed from ES cells upon switching to different types of growth factor-free media. […] Tubb3 expression was confirmed by immunostaining. When either of the ES cell growth factors LIF or Bmp4 were added back into growth factor-free media, there was a strong block on neuronal differentiation.
ESC differentiation. Twenty-four hours before starting, ESCs are trypsinized and spread out as monolayer onto gelatin in standard ES media. […]
as §1

B1: Bmp4: ES cell growth factor, promotes Id protein family expression (protein, UniProt P21275 293-408, looked up)
Bone morphogenetic protein 4: SPKHHPQRSRKKNKNCRRHSLYVDFSDVGWNDWIVAPPGYQAFYCHGDCPFPLADHLNSTNHAIVQTLVNSVNSSIPKACCVPTELSAISMLYLDEYDKVVLKNYQEMVVEGCGCR
B1 was tested, and the “MHC+ nuclei (differentiation) when added back to N2B27” value ([1]; LIF 1000 U/ml or Bmp4 10 ng/ml added back to N2B27, Day 4) was 0%, the muscle differentiation ([1]; continuation of LIF (1000 U/ml) or addition of Bmp4 (10 ng/ml), Day 0 to Day 4) was “strong block” and the AFP expression [2] was “did not reduce”. For the same molecule, the neuronal differentiation [3] was “strong block”.
